Experimental data reported in patent US20220127354A1 (Amgen, published 2022).

Experiments:
Assay in all cases: flow cytometry, transfected 293T cells
[1] = target: T1, huCDH19(44-249)::muCDH19(248-770) with Flag tag (construct C, Hu EC1-2) (human/mouse chimera)
T1 construct: leader left out; the entry starts at residue 44; also called C137896
Text: (§1) The experiment included assaying the anti-CDH19 antibodies against mouse Cadherin19 to determine suitability for binning on these human/mouse chimeras.

[2] = target: T2, muCDH19(44-139)::huCDH19(142-249)::muCDH19(248-770) with Flag tag (construct D, Hu EC2) (human/mouse chimera)
T2 construct: leader left out; the entry starts at residue 44; also called C137913
T2 chain: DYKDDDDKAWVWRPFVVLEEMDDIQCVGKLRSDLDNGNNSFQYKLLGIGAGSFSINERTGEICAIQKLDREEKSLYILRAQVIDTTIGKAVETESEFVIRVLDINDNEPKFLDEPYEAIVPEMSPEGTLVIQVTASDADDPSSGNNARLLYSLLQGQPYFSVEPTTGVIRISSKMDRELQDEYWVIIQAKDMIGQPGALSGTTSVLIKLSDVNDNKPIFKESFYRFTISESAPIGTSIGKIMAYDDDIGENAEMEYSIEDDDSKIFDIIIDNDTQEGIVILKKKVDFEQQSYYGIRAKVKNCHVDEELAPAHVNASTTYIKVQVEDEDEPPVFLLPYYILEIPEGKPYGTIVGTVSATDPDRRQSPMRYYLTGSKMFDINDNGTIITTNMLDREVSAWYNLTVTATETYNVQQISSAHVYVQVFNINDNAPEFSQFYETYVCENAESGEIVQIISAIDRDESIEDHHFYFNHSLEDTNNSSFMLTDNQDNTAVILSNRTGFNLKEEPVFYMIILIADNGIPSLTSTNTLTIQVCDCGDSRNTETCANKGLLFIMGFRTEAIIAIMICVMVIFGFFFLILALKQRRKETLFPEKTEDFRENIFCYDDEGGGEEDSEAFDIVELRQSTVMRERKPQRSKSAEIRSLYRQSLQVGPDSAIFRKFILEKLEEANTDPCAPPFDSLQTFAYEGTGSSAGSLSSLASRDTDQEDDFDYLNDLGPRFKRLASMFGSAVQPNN
Text: as §1

[3] = target: T3, muCDH19(44-362)::huCDH19(365-772) with Flag tag (construct G, Hu EC4-5) (human/mouse chimera)
T3 construct: leader left out; the entry starts at residue 44; also called C137917
T3 chain: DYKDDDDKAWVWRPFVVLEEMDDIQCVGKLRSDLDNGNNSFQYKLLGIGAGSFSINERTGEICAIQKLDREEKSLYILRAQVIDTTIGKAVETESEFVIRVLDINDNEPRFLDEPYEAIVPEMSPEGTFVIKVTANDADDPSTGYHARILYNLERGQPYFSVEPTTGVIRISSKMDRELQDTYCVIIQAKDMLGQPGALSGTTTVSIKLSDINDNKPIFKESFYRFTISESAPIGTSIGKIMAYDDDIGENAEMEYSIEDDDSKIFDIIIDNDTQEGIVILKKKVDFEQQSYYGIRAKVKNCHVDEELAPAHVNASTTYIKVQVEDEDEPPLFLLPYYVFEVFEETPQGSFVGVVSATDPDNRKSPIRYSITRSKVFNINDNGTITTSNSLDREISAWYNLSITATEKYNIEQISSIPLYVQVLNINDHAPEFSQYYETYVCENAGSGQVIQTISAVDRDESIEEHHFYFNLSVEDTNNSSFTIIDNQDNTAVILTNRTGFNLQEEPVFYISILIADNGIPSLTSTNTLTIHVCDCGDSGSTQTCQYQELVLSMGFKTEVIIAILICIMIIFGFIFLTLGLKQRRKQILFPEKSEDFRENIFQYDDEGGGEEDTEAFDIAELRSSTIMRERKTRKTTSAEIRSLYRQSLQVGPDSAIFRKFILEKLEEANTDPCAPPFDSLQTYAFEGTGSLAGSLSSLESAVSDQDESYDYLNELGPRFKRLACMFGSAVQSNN
Text: as §1

[4] = target: huCDH19(44-772) with Flag tag (construct A, Hu EC1-5) (human, UniProt Q9H159 44-772)
Text: as §1

[5] = target: T4, muCDH19(44-461)::huCDH19(464-772) with Flag tag (construct H, Hu EC5) (human/mouse chimera)
T4 construct: leader left out; the entry starts at residue 44; also called C137915
T4 chain: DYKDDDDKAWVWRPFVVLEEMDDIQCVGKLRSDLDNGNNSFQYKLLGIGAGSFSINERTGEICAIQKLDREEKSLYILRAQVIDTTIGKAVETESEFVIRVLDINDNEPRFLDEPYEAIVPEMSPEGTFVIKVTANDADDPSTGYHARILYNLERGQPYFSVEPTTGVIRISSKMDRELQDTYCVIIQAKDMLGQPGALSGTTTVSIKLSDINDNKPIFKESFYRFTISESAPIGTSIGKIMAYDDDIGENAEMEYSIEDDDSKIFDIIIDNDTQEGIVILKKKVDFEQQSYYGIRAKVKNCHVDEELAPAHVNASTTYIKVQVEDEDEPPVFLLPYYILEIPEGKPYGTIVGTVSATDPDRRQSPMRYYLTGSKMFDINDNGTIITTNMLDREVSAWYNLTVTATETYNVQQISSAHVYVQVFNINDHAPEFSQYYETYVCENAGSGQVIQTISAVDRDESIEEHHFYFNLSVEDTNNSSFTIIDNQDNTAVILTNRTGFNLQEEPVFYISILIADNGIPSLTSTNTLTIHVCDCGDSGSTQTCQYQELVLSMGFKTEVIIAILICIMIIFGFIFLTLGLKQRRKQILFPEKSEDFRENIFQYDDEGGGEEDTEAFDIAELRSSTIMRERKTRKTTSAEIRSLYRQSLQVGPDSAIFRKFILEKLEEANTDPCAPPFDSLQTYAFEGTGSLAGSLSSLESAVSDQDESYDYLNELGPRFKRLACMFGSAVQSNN
Text: as §1

[6] = target: T5, muCDH19(44-139)::huCDH19(142-364)::muCDH19(363-770) with Flag tag (construct E, Hu EC2-3) (human/mouse chimera)
T5 construct: leader left out; the entry starts at residue 44; also called C137847
Text: as §1

[7] = target: T6, muCDH19(44-770) with Flag tag (construct I, Mu EC1-5) (mouse)
T6 construct: leader left out; the entry starts at residue 44; also called Mo EC1-5; mouse Cadherin19
T6 chain: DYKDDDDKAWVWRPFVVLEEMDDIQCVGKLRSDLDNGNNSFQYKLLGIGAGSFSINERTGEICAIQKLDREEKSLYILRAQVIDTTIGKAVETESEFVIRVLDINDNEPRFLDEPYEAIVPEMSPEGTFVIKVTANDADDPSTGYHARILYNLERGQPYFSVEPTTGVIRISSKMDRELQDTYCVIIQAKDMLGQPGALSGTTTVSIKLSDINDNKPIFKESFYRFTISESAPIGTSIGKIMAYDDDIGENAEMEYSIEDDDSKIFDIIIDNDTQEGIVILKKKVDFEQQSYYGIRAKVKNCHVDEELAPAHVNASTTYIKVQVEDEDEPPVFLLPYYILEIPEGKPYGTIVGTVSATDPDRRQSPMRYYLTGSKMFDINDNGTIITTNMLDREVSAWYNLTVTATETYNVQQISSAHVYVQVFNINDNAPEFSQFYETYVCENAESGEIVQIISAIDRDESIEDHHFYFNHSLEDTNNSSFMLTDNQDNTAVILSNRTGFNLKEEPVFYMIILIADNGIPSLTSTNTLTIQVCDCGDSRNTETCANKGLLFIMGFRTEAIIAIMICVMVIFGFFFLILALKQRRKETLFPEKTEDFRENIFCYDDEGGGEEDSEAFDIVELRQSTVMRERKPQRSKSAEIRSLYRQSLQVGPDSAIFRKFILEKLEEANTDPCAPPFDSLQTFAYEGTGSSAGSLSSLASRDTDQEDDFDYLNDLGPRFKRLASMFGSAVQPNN
Text: as §1

[8] = target: T7, huCDH19(44-141)::muCDH19(140-770) with Flag tag (construct B, Hu EC1) (human/mouse chimera)
T7 construct: leader left out; the entry starts at residue 44; also called C137897
Text: as §1

[9] = target: T8, muCDH19(44-247)::huCDH19(250-364)::muCDH19(363-770) with Flag tag (construct F, Hu EC3) (human/mouse chimera)
T8 construct: leader left out; the entry starts at residue 44; also called C137911
Text: as §1

Measured: binding result

B1: hu anti-<huCDH19> 2G6 (1-477)(R17G) VH::huIgG1z + 23A10.3 (1-231)(C42S) VL::huLLC-C2 (Ab ID 14304) (antibody, V domains shown)
VH: QVQLVESGGGVVQPGGSLRLSCAASGFTFSSYGMHWVRQAPGKGLEWVAFIWYDGSNKYYADSVKDRFTISRDNSKNTLYLQMKSLRAEDTAVYYCARRAGIIGTIGYYYGMDVWGQGTTVTVSS
VL: SYELTQPPSVSVSPGQTASITCSGDRLGEKYVSWYQQKPGQSPILVIYQDNKWPSGIPERFSGSNSGNTATLTISGTQAMDEADYYCQAWDSSTVVFGGGTKLTVLG
notes: light chain is that of 23A10.3 (C42S); Bin 4
binds: all assays above

B2: hu anti-<huCDH19> 2G6 (1-477)(R17G,D61E,D72E,K94N) VH::huIgG1z + 2G6 (1-234)(C42S,D110E) VL::huLLC-C1 (Ab ID 14039) (antibody, V domains shown)
VH: QVQLVESGGGVVQPGGSLRLSCAASGFTFSSYGMHWVRQAPGKGLEWVAFIWYEGSNKYYAESVKDRFTISRDNSKNTLYLQMNSLRAEDTAVYYCARRAGIIGTIGYYYGMDVWGQGTTVTVSS
VL: SYELTQPPSVSVSPGQTASITCSGDRLGEKYTSWYQQRPGQSPLLVIYQDTKRPSGIPERFSGSNSGNTATLTISGTQAMDEADYYCQAWESSTVVFGGGTKLTVLG
notes: Engineered variant of 2G6; the entries already carry the changes; Bin 4
binds: all assays above
